From patent publication US20080242617 come the findings set out here.

The target in series [1] is T1, HalA1.
T1 chain: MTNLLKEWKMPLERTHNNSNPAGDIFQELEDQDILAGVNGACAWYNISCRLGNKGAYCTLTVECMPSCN

In series [2] the target is T2, HalA2.
T2 chain: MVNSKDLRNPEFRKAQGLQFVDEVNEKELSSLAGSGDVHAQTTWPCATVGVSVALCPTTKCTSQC

B1: HalM1 (protein)
chain: MRELQNALYFSEVVFGPNLEKIVGEKRLNFWLKLIGEDPENLKEFLSRKGNSFEEQTLPEKEAIVPNRLGEEALEKVREELEFLNTYSTKHVRRVKELGVQIPFEGILLPFISMYIEKFQQQQLRKKIGPIHEEIWTQIVQDITSKLNAILHRTLILELNVARVTSQLKGDTPEERFAYYSKTYLGKREVTHRLYSEYPVVLRLLFTTISHHISFITEILERVANDREAIETEFSPCSPIGTLASLHLNSGDAHHKQRTVTILEFSSSLKLVYKPRSLKVDGVFNGLLAFLNDRTGEVIKDQYCPKVLQRDGYGYVEFVTHQSCQSLEEVSDFYERLGSLMSLSYVLNSSDFHFENIIAHGPYPVLIDLETIIHNTADSSEETSTAMDRAFRMLNDSVLSTGMLPSSIYYRDQPNMKGLNVGGVSKSEGQKTPFKVNQIANRNTDEMRIEKDHVTLSSQKNLPIFQSAAMESVHFLDQIQKGFTSMYQWIEKNKQEFKEQVRKFEGVPVRAVLRSTTRYTELLKSSYHPDLLRSALDREVLLNRLTVDSVMTPYLKEIIPLEVEDLLNGDVPYFYTLPEERALYQEASAINSTFFTTSIFHKIDQKIDKLGIEDHTQQMKILHMSMLASNANHYADVADLDIQKGHTIKNEQYVEMAKDIGDYLMELSVEGENQGEPDLCWISTVLEGSSEIIWDISPVGEDLYNGSAGVALFYAYLFKITGEKRYQEIAYKALVPVRRSVAQFQHHPNWSIGAFNGASGYLYAMGTIAALFNDERLKHEVTRSIPHIEPMIHEDKIYDFIGGSAGALKVFLSLSGLFDEPKFLELAIACSEHLMKNAIKTDQGIGWKPPWEVTPLTGFSHGVSGVMASFIELYQQTGDERLLSYIDQSLAYERSFFSEQEENWLTPNKETPVVAWCHGAPGILVSRLLLKKCGYLDEKVEKEIEVALSTTIRKGLGNNRSLCHGDFGQLEILRFAAEVLGDSYLQEVVNNLSGELYNLFKTEGYQSGTSRGTESVGLMVGLSGFGYGLLSAAYPSAVPSILTLDGEIQKYREPHEANH
B1: in series [1], the “dehydration of the peptide, MALDI-TOF MS” value is “Incubation of HalA1 with HalM1 generated a species that was dehydrated 3-fold” and the “iodoacetamide alkylation of free cysteines after HalM modification (cyclization), MALDI-TOF MS” value is “The mass of HalA1 after modification by HalM1 was increased by 116 Da, consistent with the addition of two adducts”. For the same protein, the “dehydration of the peptide, MALDI-TOF MS” value in series [2] is reported as “Incubation of HalA1 with HalM2 or HalA2 with HalM1 did not result in modified peptide in either case”.

B2: HalM2 (protein)
chain: TPLTSEHPSVPTTLPHTNDTDWLEQLHDILSIPVTEEIQKYFHAENDLFSFFYTPFLQFTYQSMSDYFMTFKTDMALIERQSLLQSTLTAVHHRLFHLTHRTLISEMHIDKLTVGLNGSTPHERYMDFNHKFNKTSKSKNLFNIYPILGKLVVNETLRTINFVKKIIQHYMKDYLLLSDFFKEKDLRLTNLQLGVGDTHVNGQCVTILTFASGQKVVYKPRSLSIDKQFGEFIEWVNSKGFQPSLRIPIAIDRQTYGWYEFIPHQEATSEDEIERYYSRIGGYLAIAYLFGATDLHLDNLIACGEHPMLIDLETLFTNDLDCYDSAFPFPALARELTQSVFGTLMLPITIASGKLLDIDLSAVGGGKGVQSEKIKTWVIVNQKTDEMKLVEQPYVTESSQNKPTVNGKEANIGNYIPHVTDGFRKMYRLFLNEIDELMDHNGPIFAFESCQIRHVFRATHVYAKFLEASTHPDYLQEPTRRNKLFESFWNITSLMAPFKKIVPHEIAELENHDIPYFVLTCGGTIVKDGYGRDIADLFQSSCIERVTHRLQQLGSEDEARQIRYIKSSLATLTNGDWTPSHEKTPMSPASADREDGYFLREAQAIGDDILAQLIWEDDRHAAYLIGVSVGMNEAVTVSPLTPGIYDGTLGIVLFFDQLAQQTGETHYRHAADALLEGMFKQLKPELMPSSAYFGLGSLFYGLMVLGLQRSDSHIIQKAYEYLKHLEECVQHEETPDFVSGLSGVLYMLTKIYQLTNEPRVFEVAKTTASRLSVLLDSKQPDTVLTGLSHGAAGFALALLTYGTAANDEQLLKQGHSYLVYERNRFNKQENNWVDLRKGNAYQTFWCHGAPGIGISRLLLAQFYDDELLHEELNAALNKTISDGFGHNHSLCHGDFGNLDLLLLYAQYTNNPEPKELARKLAISSIDQAHTYGWKLGLNHSDQLQGMMLGVTGIGYQLLRHINPTVPSILALELPSSTLTEKELRIHDR
For the protein B2, the “dehydration of the peptide, MALDI-TOF MS” value in series [1] is recorded as “Incubation of HalA1 with HalM2 or HalA2 with HalM1 did not result in modified peptide in either case”. For the same protein, in series [2], the “dehydration of the peptide, MALDI-TOF MS” value is “incubation of HalA2 with HalM2 generated a species that was dehydrated 7-fold” and the “iodoacetamide alkylation of free cysteines after HalM modification (cyclization), MALDI-TOF MS” value is “The mass of HalA2 modified by HalM2 remained unchanged under the alkylation conditions tested, consistent with the absence of free Cys residues”.
